From publication PMC3574117

What was measured:
[1] = biological target: PhaF phasin from Pseudomonas putida KT2440 (Pseudomonas putida KT2440); test: AUC; sedimentation equilibrium, short columns, 10000 and 16000 rpm, 20 mM sodium phosphate pH 7.0, 150 mM NaCl, 20 °C; single-species fit
[2] = biological target: PhaF phasin from Pseudomonas putida KT2440 (Pseudomonas putida KT2440); test: AUC; sedimentation velocity; 38 µM PhaF (3.8 to 38 µM, data not shown) in 20 mM sodium phosphate pH 7.0, 150 mM NaCl, 48000 rpm, 20 °C; c(s) analysis

PhaF phasin from Pseudomonas putida KT2440 (natural protein)
stoichiometry N [1]: 4 | stoichiometry N [2]: 4
